Results taken from patent US20150258192A1, “COMPOSITIONS AND METHODS FOR PREVENTING OR TREATING CHRONIC LUNG ALLOGRAFT DYSFUNCTION (CLAD) AND IDIOPATHIC PULMONARY FIBROSIS (IPF)” (priority 2014, published 2015).
No end group written: not given here.

biological target: Abl(T315I)(h) (Homo sapiens, UniProt P00519, T315I); experiment: Kinase Profiling Assay; format: biochemical; conditions: peptide 100 μM
How it was run: (§1)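 Each kinase activity was measured in duplicate. Phosphorylation of a positively charged substrate with radiolabeled phosphate from ATP was captured on a negatively charged filter, counted by scintillation and expressed relative to a 100% activity control. MK2 inhibitory peptides were screened for specificity across 266 human kinases.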

| Sequence | % activity [%] |
| --- | --- |
| FAKLAARLYRKALARQLGVAA [MMI-0300] | 97 |
| HRRIKAWLKKIKALARQLGVAA (Mammal) [MMI-0500] | 16 |
| YARAAARQARAKALARQLGVAA [MMI-0100] | 98 |
| YARAAARQARAKALNRQLGVA (Mammal) [MMI-0200] | 108 |

biological target: T1, BrSK2(h) (Homo sapiens, UniProt Q8IWQ3); experiment: Kinase Profiling Assay; format: biochemical; conditions: peptide 100 μM
T1 sequence (Q8IWQ3 1-736): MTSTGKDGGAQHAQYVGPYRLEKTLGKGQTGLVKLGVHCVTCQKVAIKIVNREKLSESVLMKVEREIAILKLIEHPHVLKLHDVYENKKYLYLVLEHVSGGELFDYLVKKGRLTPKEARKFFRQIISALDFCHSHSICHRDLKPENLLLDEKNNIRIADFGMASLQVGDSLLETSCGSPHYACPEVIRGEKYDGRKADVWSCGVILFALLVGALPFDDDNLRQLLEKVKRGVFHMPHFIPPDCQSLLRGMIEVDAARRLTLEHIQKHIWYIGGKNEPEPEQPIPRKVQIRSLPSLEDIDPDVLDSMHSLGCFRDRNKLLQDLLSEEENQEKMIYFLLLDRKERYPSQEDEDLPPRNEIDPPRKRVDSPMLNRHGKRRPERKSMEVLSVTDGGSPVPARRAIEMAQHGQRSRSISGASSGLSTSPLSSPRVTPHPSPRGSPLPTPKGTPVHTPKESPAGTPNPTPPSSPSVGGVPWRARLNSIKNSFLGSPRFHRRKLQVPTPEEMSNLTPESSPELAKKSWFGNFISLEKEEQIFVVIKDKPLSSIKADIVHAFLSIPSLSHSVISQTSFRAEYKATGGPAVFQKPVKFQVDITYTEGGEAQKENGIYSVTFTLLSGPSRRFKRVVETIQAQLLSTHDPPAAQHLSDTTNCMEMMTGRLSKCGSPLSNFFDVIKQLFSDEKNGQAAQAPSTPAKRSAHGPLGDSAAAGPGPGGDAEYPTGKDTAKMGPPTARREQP
How it was run: as §1

| Sequence | % activity [%] |
| --- | --- |
| FAKLAARLYRKALARQLGVAA [MMI-0300] | 83 |
| HRRIKAWLKKIKALARQLGVAA (Mammal) [MMI-0500] | 84 |
| KAFAKLAARLYRKALARQLGVAA [MMI-0400] | 86 |
| YARAAARQARAKALARQLGVAA [MMI-0100] | 129 |

biological target: DAPK2(h) (Homo sapiens, UniProt Q9UIK4); experiment: Kinase Profiling Assay; format: biochemical; conditions: peptide 100 μM
Sequence (Q9UIK4 whole entry): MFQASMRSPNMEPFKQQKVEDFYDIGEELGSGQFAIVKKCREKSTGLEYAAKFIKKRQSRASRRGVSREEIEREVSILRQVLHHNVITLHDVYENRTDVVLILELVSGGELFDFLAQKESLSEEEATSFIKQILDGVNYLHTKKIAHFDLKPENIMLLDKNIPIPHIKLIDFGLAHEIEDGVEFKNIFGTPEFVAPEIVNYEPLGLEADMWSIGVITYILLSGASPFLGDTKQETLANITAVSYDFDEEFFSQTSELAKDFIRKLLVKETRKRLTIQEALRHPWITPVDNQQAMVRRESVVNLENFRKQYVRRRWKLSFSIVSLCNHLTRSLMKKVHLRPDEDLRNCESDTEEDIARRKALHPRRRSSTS
How it was run: as §1

| Sequence | % activity [%] |
| --- | --- |
| FAKLAARLYRKALARQLGVAA [MMI-0300] | 32 |
| HRRIKAWLKKIKALARQLGVAA (Mammal) [MMI-0500] | 3 |
| KAFAKLAARLYRKALARQLGVAA [MMI-0400] | 16 |
| YARAAARQARAKALNRQLGVA (Mammal) [MMI-0200] | 92 |

biological target: T2, EphB4(h) (Homo sapiens, UniProt P54760); experiment: Kinase Profiling Assay; format: biochemical; conditions: peptide 100 μM
T2 sequence (P54760 16-987): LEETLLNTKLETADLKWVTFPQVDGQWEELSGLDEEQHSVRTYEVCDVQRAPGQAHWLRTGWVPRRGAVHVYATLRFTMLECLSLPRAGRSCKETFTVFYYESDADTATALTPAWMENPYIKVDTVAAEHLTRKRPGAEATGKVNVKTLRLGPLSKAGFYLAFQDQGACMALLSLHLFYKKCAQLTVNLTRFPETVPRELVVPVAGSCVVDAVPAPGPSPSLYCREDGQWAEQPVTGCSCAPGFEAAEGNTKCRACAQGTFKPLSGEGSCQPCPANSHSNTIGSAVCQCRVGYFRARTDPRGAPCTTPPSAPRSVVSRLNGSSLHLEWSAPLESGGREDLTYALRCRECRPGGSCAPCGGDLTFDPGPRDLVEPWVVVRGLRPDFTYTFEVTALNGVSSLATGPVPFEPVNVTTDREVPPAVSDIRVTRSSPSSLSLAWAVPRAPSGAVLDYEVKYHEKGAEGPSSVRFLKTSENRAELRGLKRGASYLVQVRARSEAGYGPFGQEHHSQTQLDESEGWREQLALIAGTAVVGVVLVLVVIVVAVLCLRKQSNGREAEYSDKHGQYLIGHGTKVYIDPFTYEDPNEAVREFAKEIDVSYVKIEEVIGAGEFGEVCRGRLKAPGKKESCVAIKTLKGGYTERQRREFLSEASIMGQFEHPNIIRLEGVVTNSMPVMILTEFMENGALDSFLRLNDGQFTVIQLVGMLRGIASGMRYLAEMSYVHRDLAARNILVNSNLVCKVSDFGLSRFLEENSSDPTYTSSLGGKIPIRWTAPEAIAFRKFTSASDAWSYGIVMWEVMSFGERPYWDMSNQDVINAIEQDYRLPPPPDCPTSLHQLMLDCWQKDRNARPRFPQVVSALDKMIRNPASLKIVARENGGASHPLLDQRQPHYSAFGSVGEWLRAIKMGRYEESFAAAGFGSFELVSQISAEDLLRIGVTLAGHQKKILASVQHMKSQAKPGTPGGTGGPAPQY
How it was run: as §1

| Sequence | % activity [%] |
| --- | --- |
| FAKLAARLYRKALARQLGVAA [MMI-0300] | 44 |
| HRRIKAWLKKIKALARQLGVAA (Mammal) [MMI-0500] | 38 |
| KAFAKLAARLYRKALARQLGVAA [MMI-0400] | 28 |
| YARAAARQARAKALARQLGVAA [MMI-0100] | 62 |
| YARAAARQARAKALNRQLGVA (Mammal) [MMI-0200] | 131 |

biological target: T3, NEK7(h) (Homo sapiens, UniProt Q8TDX7); experiment: Kinase Profiling Assay; format: biochemical; conditions: peptide 100 μM
T3 construct: purchased Millipore
T3 sequence (Q8TDX7 whole entry): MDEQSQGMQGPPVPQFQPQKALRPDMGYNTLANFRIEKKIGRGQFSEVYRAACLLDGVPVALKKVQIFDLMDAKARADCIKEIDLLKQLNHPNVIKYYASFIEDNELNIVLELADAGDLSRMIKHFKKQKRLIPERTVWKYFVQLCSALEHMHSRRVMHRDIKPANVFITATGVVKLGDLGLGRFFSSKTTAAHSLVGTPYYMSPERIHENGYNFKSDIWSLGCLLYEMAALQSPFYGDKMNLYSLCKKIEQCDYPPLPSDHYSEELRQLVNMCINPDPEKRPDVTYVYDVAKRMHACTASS
How it was run: as §1

| Sequence | % activity [%] |
| --- | --- |
| FAKLAARLYRKALARQLGVAA [MMI-0300] | 84 |
| HRRIKAWLKKIKALARQLGVAA (Mammal) [MMI-0500] | 89 |
| KAFAKLAARLYRKALARQLGVAA [MMI-0400] | 87 |
| YARAAARQARAKALNRQLGVA (Mammal) [MMI-0200] | 96 |

biological target: T4, PKCζ(h) (Homo sapiens, UniProt Q05513); experiment: Kinase Profiling Assay; format: biochemical; conditions: peptide 100 μM
T4 sequence (Q05513 1-592): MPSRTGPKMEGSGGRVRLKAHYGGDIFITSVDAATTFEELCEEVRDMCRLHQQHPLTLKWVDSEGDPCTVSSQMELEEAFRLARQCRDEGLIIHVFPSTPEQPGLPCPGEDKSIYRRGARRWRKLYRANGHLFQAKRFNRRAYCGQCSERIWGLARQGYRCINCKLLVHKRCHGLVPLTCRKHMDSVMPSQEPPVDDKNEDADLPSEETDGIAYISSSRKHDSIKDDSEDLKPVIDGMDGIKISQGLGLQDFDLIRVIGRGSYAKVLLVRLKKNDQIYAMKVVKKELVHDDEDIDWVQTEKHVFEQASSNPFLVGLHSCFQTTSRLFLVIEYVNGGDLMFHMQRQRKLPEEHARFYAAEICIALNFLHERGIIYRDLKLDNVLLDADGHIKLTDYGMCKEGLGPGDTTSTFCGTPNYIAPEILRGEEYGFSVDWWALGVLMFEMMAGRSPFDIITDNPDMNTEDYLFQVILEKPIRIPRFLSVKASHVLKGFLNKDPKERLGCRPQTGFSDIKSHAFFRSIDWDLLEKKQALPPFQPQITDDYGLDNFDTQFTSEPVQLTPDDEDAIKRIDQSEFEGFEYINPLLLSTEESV
How it was run: as §1

| Sequence | % activity [%] |
| --- | --- |
| FAKLAARLYRKALARQLGVAA [MMI-0300] | 81 |
| HRRIKAWLKKIKALARQLGVAA (Mammal) [MMI-0500] | 7 |
| KAFAKLAARLYRKALARQLGVAA [MMI-0400] | 75 |
| YARAAARQARAKALARQLGVAA [MMI-0100] | 82 |
| YARAAARQARAKALNRQLGVA (Mammal) [MMI-0200] | 98 |

biological target: Ret(V804L)(h) (Homo sapiens, UniProt P07949, V804L); experiment: Kinase Profiling Assay; format: biochemical; conditions: peptide 100 μM
How it was run: as §1

| Sequence | % activity [%] |
| --- | --- |
| FAKLAARLYRKALARQLGVAA [MMI-0300] | 79 |
| HRRIKAWLKKIKALARQLGVAA (Mammal) [MMI-0500] | 20 |
| KAFAKLAARLYRKALARQLGVAA [MMI-0400] | 73 |
| YARAAARQARAKALNRQLGVA (Mammal) [MMI-0200] | 100 |

biological target: T5, Snk(h) (Homo sapiens, UniProt Q9NYY3); experiment: Kinase Profiling Assay; format: biochemical; conditions: peptide 100 μM
T5 construct: purchased Millipore
T5 sequence (Q9NYY3 whole entry): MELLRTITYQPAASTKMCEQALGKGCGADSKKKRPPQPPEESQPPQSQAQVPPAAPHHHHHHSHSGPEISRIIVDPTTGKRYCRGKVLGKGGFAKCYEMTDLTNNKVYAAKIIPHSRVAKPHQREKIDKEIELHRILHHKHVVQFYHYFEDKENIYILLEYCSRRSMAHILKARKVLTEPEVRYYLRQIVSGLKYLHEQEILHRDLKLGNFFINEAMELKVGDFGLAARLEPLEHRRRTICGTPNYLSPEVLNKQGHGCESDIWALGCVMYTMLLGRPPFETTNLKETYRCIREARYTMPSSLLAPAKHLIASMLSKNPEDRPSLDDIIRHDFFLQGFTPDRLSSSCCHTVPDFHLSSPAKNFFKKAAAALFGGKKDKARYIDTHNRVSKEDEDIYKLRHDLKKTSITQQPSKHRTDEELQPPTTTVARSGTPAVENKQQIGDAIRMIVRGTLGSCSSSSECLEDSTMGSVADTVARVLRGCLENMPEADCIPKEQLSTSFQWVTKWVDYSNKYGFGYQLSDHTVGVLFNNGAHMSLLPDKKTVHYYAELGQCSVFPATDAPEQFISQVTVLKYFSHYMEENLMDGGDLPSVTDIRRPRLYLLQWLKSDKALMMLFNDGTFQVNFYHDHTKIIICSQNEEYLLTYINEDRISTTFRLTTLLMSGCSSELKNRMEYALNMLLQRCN
How it was run: as §1

| Sequence | % activity [%] |
| --- | --- |
| HRRIKAWLKKIKALARQLGVAA (Mammal) [MMI-0500] | 122 |
| KAFAKLAARLYRKALARQLGVAA [MMI-0400] | 131 |
| YARAAARQARAKALARQLGVAA [MMI-0100] | 94 |

biological target: Tie2(Y897S)(h) (Homo sapiens, UniProt Q02763, Y897S); experiment: Kinase Profiling Assay; format: biochemical; conditions: peptide 100 μM
Sequence (Q02763 23-1124 Y897S): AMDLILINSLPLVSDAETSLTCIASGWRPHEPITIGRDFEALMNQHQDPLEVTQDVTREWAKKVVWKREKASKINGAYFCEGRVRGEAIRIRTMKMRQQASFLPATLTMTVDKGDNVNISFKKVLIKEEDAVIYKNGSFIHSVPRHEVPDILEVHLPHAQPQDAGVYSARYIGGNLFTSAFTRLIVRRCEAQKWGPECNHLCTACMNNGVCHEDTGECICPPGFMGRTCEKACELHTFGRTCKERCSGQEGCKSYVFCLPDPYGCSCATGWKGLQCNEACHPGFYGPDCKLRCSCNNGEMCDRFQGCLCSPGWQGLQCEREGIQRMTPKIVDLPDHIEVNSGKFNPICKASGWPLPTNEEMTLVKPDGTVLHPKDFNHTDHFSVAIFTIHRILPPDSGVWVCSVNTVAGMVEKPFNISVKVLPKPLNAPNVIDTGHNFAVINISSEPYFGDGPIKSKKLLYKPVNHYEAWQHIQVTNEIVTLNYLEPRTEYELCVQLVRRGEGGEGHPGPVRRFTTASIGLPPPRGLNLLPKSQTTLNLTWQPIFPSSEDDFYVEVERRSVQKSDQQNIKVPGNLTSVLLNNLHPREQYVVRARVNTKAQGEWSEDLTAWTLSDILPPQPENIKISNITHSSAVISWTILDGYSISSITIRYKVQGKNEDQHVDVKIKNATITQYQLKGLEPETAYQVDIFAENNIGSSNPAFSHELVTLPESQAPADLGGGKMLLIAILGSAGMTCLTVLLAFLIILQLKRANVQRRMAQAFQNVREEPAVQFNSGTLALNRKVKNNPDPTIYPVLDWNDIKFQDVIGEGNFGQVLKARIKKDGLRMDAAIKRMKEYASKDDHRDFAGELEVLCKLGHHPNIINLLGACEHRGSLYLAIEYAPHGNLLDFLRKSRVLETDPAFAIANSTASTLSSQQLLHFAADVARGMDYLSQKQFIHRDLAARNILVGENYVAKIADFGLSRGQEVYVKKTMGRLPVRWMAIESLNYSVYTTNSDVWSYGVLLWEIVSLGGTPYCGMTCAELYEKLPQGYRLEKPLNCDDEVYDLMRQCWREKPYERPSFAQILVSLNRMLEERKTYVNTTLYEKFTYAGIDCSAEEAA
How it was run: as §1

| Sequence | % activity [%] |
| --- | --- |
| FAKLAARLYRKALARQLGVAA [MMI-0300] | 83 |
| HRRIKAWLKKIKALARQLGVAA (Mammal) [MMI-0500] | 80 |
| KAFAKLAARLYRKALARQLGVAA [MMI-0400] | 87 |
| YARAAARQARAKALARQLGVAA [MMI-0100] | 99 |
| YARAAARQARAKALNRQLGVA (Mammal) [MMI-0200] | 85 |
